Test results published in patent US7115556B2, “Use of anti-prolactin agents to treat proliferative conditions” (Greenville Hospital System, priority 1998, dated 2006).

Experiments:
[1] = system: T-47D human breast cancer cells; assay: TUNEL assay, T-47D; type: cell-based
Method: (§1) Cell Culture. T-47D cells obtained from ATCC were grown in RPMI 1640 (phenol red free), supplemented with 10% FBS (GIBCO BRL). BT-474 cells were grown in RPMI 1640 medium (phenol red free) supplemented with 10% FBS and ATCC recommended supplements. MCF-7 cells were grown in DMEM medium (phenol red free), supplemented with 10% FBS. The cells were grown at 37° C. in a humid atmosphere in the presence of 5% CO2. The MDA-MB-134 cells were grown in Leibovitz's L-15 medium supplemented with 20% FBS and grown in CO2 free atmosphere. The breast cancer cells were trypsinized (0.02% Trypsin—EDTA) and grown in their respective media (phenol red free) supplemented with 10% CSS (Charcoal stripped serum) for a week. Subsequently the cells were trypsinized again and plated onto an 8 chambered slide system (Lab Tek II) at a confluence of 60–70% per chamber. The next day treatments were performed on the breast cancer cells using their respective media(phenol red free), supplemented with 1% CSS. The MDA-MB-134 VI cells were grown in phenol red containing medium, but with the same serum conditions as the other breast cancer cells.
Terminal deoxynucleotidly transferase mediated dUTP nick end labeling (TUNEL) assay. Nicks of the fragmented DNA are labeled at their 3-OH ends. The fluorescein-labeled dUTP is incorporated at the 3-OH ends by using the enzyme terminal deoxynucleotidyl transferase. After the assigned period of treatment the chambers were dismantled as per the manufacturer's instructions and the TUNEL assay (Apoptosis detection system, Fluorescein- Promega) was performed as per the manufacturer's instructions. The slide was examined under a FITC filter using an Olympus IX 70 microscope system.

[2] = system: tyrosine phosphorylation of STAT proteins in T47-D cells; assay: Tyrosine phosphorylation of STAT proteins in T47-D cells (Example 10); type: cell-based, human
Method: Tyrosine Phosphorylation of STAT Proteins in T47-D cells. This assay is designed to examine the effects of HPRL and hPRL-G129R on signal transduction using T47-D cells as model target cells. Briefly, T47-D cells were plated in 12-well plates. After pre-incubation in serum-free medium for 2–3 hours, cells were exposed to various concentrations of hPRL or hPRL-G129R or a combination of hPRL and hPRL-G129R in serum-free medium. The cells were incubated for 15 min at 37° C., washed once with PBS, and lysed in 200 μl lysis buffer (50 mM Tris-HCl, pH 6.8, 1% SDS, 1% β-mecaptoethanol, 0.1M DTT, 5% sucrose, 100 μM sodium orthovanadate, and 0.6% bromophenol blue). Thirty microliters of cell lysate are then subjected to 4–12.5% SDS-PAGE using the Bio-Rad Protein II system. After electrophoresis, the gels were transferred to a Hybond-ECL membrane (Amersham, Ill.) at 100 volts constant voltage for 2 hrs. Blots were incubated in a blocking solution of 4% BSA (Boehringer Mannheim, Ind.) in rinsing buffer (10 mM Tris-HCl pH 7.5, 75 mM NaCl, 0.1% Tween 20, 1 mM EDTA) for 2 hrs and subsequently washed twice with rinsing buffer for 15 min. Blots were incubated with horseradish peroxidase (HRP)-conjugated antiphosphotyrosine antibody PY20 (Amersham, Ill.) at a concentration of 0.1 μg/ml in the blocking solution for 1 hr. […] Blots were then exposed to X-ray film and developed using standard procedures (Kodak, Rochester, N.Y.).

[3] = system: MCF-7 human breast cancer cells; assay: Mixed cell culture assay with transfected L cells, MCF-7; type: cell-based; settings: MCF-7, three days
[4] = system: T47-D human breast cancer cells; assay: Light microscopic examination of T47-D cells; type: cell-based; settings: single dose 200 ng/ml, 4-day incubation
Method: FIGS. 14A–E. Light microscopic examination of T47-D human breast cancer cells after single dose of 200 ng/ml hPRL (15B); 200 ng/ml of HPRL-G129R (15C); 200 nM of E2 (15D); or 200 nM of 4-OH-Tamoxifen (15E) treatment after 4-day incubation as compared to control (15A).×200.
Human Breast Cancer Cell Proliferation Assays. Human PRL and hPRL-G129R were tested further for their ability to stimulate/inhibit breast cancer cell proliferation in cell culture. Light microscopic examination of breast cancer cell proliferation after hPRL, hPRL-G129R, E2 and 4-OH-Tamoxifen is shown in FIGS. 14A–E. It is clear that there is a significant difference in cell density between hPRL (15B), hPRL-G129R(15C) and E2 (15D), 4-OH-Tamoxifen (15E) treated cells.

[5] = system: MDA-MB-134 cells; assay: TUNEL assay, MDA-MB-134; type: cell-based, human; settings: 250 ng G129R, 24 hours
Method: as §1
Terminal deoxynucleotidly transferase mediated dUTP nick end labeling (TUNEL) assay. Nicks of the fragmented DNA are labeled at their 3-OH ends. The fluorescein-labeled dUTP is incorporated at the 3-OH ends by using the enzyme terminal deoxynucleotidyl transferase. […]

B1: hPRL-G129R: variant of human prolactin having a substitution of the glycine at position 129 with an arginine residue; prolactin receptor antagonist (protein)
chain: LPICPGGAARCQVTLRDLFDRAVVLSHYIHNLSSEMFSEFDKRYTHGRGFITKAINSCHTSSLATPEDKEQAQQMNQKDFLSLIVSILRSWNEPLYHLVTEVRGMQEAPEAILSKAVEIEEQTKRLLERMELIVSQVHPETKENEIYPVWSGLPSLQMADEESRLSAYYNLLHCLRRDSHKIDNYLKLLKCRIIHNNNC
- DNA fragmentation after 2 hours of treatment ([1]; 50 ng/ml, 2 hours): apparent
- apoptosis at physiological concentration ([1]; 50 ng/ml, 24 h): apoptosis occurs
- induction of apoptosis DNA fragmentation ([1]; 250 ng G129R, 24 hours): induced apoptosis
- competition between G129R and hPRL on DNA fragmentation ([1]; 1:1 ratio (125 ng/ml each)): able to compete with hPRL
- apoptosis (DNA fragmentation), dose response ([1]; 24 h treatment): induced apoptosis in a dose dependent manner
- inhibition of STAT protein phosphorylation induced by hPRL ([2]; 5:1 ratio (500 ng/ml hPRL-G129R, 100 ng/ml hPRL)): completely inhibited
- stimulating STAT protein phosphorylation ([2]; T47-D cells, hPRL-G129R alone (100 ng/ml, FIG. 13)): not active
- block of signal transduction (STAT phosphorylation) induced by hPRL ([2]; added together with hPRL): block the signal transduction induced by hPRL in a dose dependent manner
- effect on proliferation in mixed cell culture [3]: inhibitory effect
- overall cell condition under light microscopy [4]: not as healthy
- induction of apoptosis DNA fragmentation [5]: induced apoptosis
